# Molecular target: MHC class I (human)
# Assay: cell-based or functional assay
substance,measurement,value
"monoclonal antibody to MHC class I (w6/32 without sodium azide, Cat. No. 16-9983, e-Bioscience, Inc.)","IFN-γ production (ELISPOT, PBMC stimulated with CMV pp65 peptide …), percent inhibited, 2 µl W6/32",27 to 42%
same,"IFN-γ production (ELISPOT, PBMC stimulated with CMV pp65 peptide …), percent inhibited, 10 µl W6/32",58 to 71%
